Reference: patent publication US20220040297A1 (Chugai, published 2022)

B1: NNS6f63 (antibody)
heavy: QVQLVESGGGLVQPGRSLRLSCAASGFTFSNAWMHWVRQAPGKGLEWVAQIKDKSNNYATYYAESVKGRFTISRDDSKNSIYLQMNSLKTEDTAVYYCRYVHYAAGGGGWVYYGVDAWGQGTTVTVSSASTKGPSVFPLAPSSKSTSGGTAALGCLVKDYFPEPVTVSWNSGALTSGVHTFPAVLQSSGLYSLSSVVTVPSSSLGTQTYICNVNHKPSNTKVDKKVEPKSCDKTHTCPPCPAPEAAGGPSVFLFPPKPKDTLMISRTPEVTCVVVDVSHEDPEVKFNWYVDGVEVHNAKTKPREEQYASTYRVVSVLTVLHQDWLNGKEYKCKVSNKALPAPIEKTISKAKGQPREPQVYTLPPSRCELTKNQVSLSCAVKGFYPSDIAVEWESNGQPENNYKTTPPVLDSDGSFFLVSKLTVDKSRWQQGNVFSCSVMHEALHNHYTQKSLSLSPDYKDDDDK
chain: EPKSSDKTHTCPPCPAPELLGGPSVFLFPPKPKDTLMISRTPEVTCVVVDVSHEDPEVKFNWYVDGVEVHNAKTKPREEQYNSTYRVVSVLTVLHQDWLNGKEYKCKVSNKALPAPIEKTISKAKGQPREPQVCTLPPSRDELTKNQVSLWCLVKGFYPSDIAVEWESNGQPENNYKTTPPVLDSDGSFFLYSKLTVDKSRWQQGNVFSCSVMHEALHNRYTQKSLSLSP
light: DIVMTQSPLSLPVTPGEPASISCRSSQSLVHSNRNTYLHWYQQKPGQAPRLLIYKVSNRFSGVPDRFSGSGSGTDFTLKISRVEAEDVGVYYCGQGTQVPYTFGQGTKLEIKRTVAAPSVFIFPPSDEQLKSGTASVVCLLNNFYPREAKVQWKVDNALQSGNSQESVTEQDSKDSTYSLSSTLTLSKADYEKHKVYACEVTHQGLSSPVTKSFNRGEC
notes: one-arm antibody
B2: NNS6f17 (antibody)
heavy: QVQLVESGGGLVQPGRSLRLSCAASGFTFSNAWMHWVRQAPGKGLEWVAQIKDKSNNYATYYAESVKGRFTISRDDSKNSIYLQMNSLKTEDTAVYYCRYVHYAAWGEGVVYYGVDAWGQGTTVTVSSASTKGPSVFPLAPSSKSTSGGTAALGCLVKDYFPEPVTVSWNSGALTSGVHTFPAVLQSSGLYSLSSVVTVPSSSLGTQTYICNVNHKPSNTKVDKKVEPKSCDKTHTCPPCPAPEAAGGPSVFLFPPKPKDTLMISRTPEVTCVVVDVSHEDPEVKFNWYVDGVEVHNAKTKPREEQYASTYRVVSVLTVLHQDWLNGKEYKCKVSNKALPAPIEKTISKAKGQPREPQVYTLPPSRCELTKNQVSLSCAVKGFYPSDIAVEWESNGQPENNYKTTPPVLDSDGSFFLVSKLTVDKSRWQQGNVFSCSVMHEALHNHYTQKSLSLSPDYKDDDDK
chain: EPKSSDKTHTCPPCPAPELLGGPSVFLFPPKPKDTLMISRTPEVTCVVVDVSHEDPEVKFNWYVDGVEVHNAKTKPREEQYNSTYRVVSVLTVLHQDWLNGKEYKCKVSNKALPAPIEKTISKAKGQPREPQVCTLPPSRDELTKNQVSLWCLVKGFYPSDIAVEWESNGQPENNYKTTPPVLDSDGSFFLYSKLTVDKSRWQQGNVFSCSVMHEALHNRYTQKSLSLSP
light: DIVMTQSPLSLPVTPGEPASISCRSSQSLVHSNRNTYLHWYQQKPGQAPRLLIYKVSNRFSGVPDRFSGSGSGTDFTLKISRVEAEDVGVYYCGQGTQVPYTFGQGTKLEIKRTVAAPSVFIFPPSDEQLKSGTASVVCLLNNFYPREAKVQWKVDNALQSGNSQESVTEQDSKDSTYSLSSTLTLSKADYEKHKVYACEVTHQGLSSPVTKSFNRGEC
notes: one-arm antibody
B3: NNS6f29 (antibody)
heavy: QVQLVESGGGLVQPGRSLRLSCAASGFTFSNAWMHWVRQAPGKGLEWVAQIKDKSNNYATYYAESVKGRFTISRDDSKNSIYLQMNSLKTEDTAVYYCRYVHYAAIYYPTNYYGVDAWGQGTTVTVSSASTKGPSVFPLAPSSKSTSGGTAALGCLVKDYFPEPVTVSWNSGALTSGVHTFPAVLQSSGLYSLSSVVTVPSSSLGTQTYICNVNHKPSNTKVDKKVEPKSCDKTHTCPPCPAPEAAGGPSVFLFPPKPKDTLMISRTPEVTCVVVDVSHEDPEVKFNWYVDGVEVHNAKTKPREEQYASTYRVVSVLTVLHQDWLNGKEYKCKVSNKALPAPIEKTISKAKGQPREPQVYTLPPSRCELTKNQVSLSCAVKGFYPSDIAVEWESNGQPENNYKTTPPVLDSDGSFFLVSKLTVDKSRWQQGNVFSCSVMHEALHNHYTQKSLSLSPDYKDDDDK
chain: EPKSSDKTHTCPPCPAPELLGGPSVFLFPPKPKDTLMISRTPEVTCVVVDVSHEDPEVKFNWYVDGVEVHNAKTKPREEQYNSTYRVVSVLTVLHQDWLNGKEYKCKVSNKALPAPIEKTISKAKGQPREPQVCTLPPSRDELTKNQVSLWCLVKGFYPSDIAVEWESNGQPENNYKTTPPVLDSDGSFFLYSKLTVDKSRWQQGNVFSCSVMHEALHNRYTQKSLSLSP
light: DIVMTQSPLSLPVTPGEPASISCRSSQSLVHSNRNTYLHWYQQKPGQAPRLLIYKVSNRFSGVPDRFSGSGSGTDFTLKISRVEAEDVGVYYCGQGTQVPYTFGQGTKLEIKRTVAAPSVFIFPPSDEQLKSGTASVVCLLNNFYPREAKVQWKVDNALQSGNSQESVTEQDSKDSTYSLSSTLTLSKADYEKHKVYACEVTHQGLSSPVTKSFNRGEC
notes: one-arm antibody
B4: NNS6f27 (antibody)
heavy: QVQLVESGGGLVQPGRSLRLSCAASGFTFSNAWMHWVRQAPGKGLEWVAQIKDKSNNYATYYAESVKGRFTISRDDSKNSIYLQMNSLKTEDTAVYYCRYVHYAAVWGSVWYYGVDAWGQGTTVTVSSASTKGPSVFPLAPSSKSTSGGTAALGCLVKDYFPEPVTVSWNSGALTSGVHTFPAVLQSSGLYSLSSVVTVPSSSLGTQTYICNVNHKPSNTKVDKKVEPKSCDKTHTCPPCPAPEAAGGPSVFLFPPKPKDTLMISRTPEVTCVVVDVSHEDPEVKFNWYVDGVEVHNAKTKPREEQYASTYRVVSVLTVLHQDWLNGKEYKCKVSNKALPAPIEKTISKAKGQPREPQVYTLPPSRCELTKNQVSLSCAVKGFYPSDIAVEWESNGQPENNYKTTPPVLDSDGSFFLVSKLTVDKSRWQQGNVFSCSVMHEALHNHYTQKSLSLSPDYKDDDDK
chain: EPKSSDKTHTCPPCPAPELLGGPSVFLFPPKPKDTLMISRTPEVTCVVVDVSHEDPEVKFNWYVDGVEVHNAKTKPREEQYNSTYRVVSVLTVLHQDWLNGKEYKCKVSNKALPAPIEKTISKAKGQPREPQVCTLPPSRDELTKNQVSLWCLVKGFYPSDIAVEWESNGQPENNYKTTPPVLDSDGSFFLYSKLTVDKSRWQQGNVFSCSVMHEALHNRYTQKSLSLSP
light: DIVMTQSPLSLPVTPGEPASISCRSSQSLVHSNRNTYLHWYQQKPGQAPRLLIYKVSNRFSGVPDRFSGSGSGTDFTLKISRVEAEDVGVYYCGQGTQVPYTFGQGTKLEIKRTVAAPSVFIFPPSDEQLKSGTASVVCLLNNFYPREAKVQWKVDNALQSGNSQESVTEQDSKDSTYSLSSTLTLSKADYEKHKVYACEVTHQGLSSPVTKSFNRGEC
notes: one-arm antibody
B5: GLS3000 Y96F (antibody, IgG1, name in Kabat numbering, V domains shown)
VH: QVQLVESGGGVVQPGRSLRLSCAASGFTFSNAWMHWVRQAPGKGLEWVAQIKAKSNNYATYYAESVKGRFTISRDDSKNSLYLQMNSLKTEDTAVYYCRYVHYGAYYGVDAWGQGTTVTVSS
VL: DIVMTQSPLSLPVTPGEPASISCRSSQSLVHSNRNTYLHWYQQKPGQAPRLLIYKVSNRFSGVPDRFSGSGSGTDFTLKISRVEAEDVGVYYCGQGTQVPFTFGQGTKLEIK

Key:
CD3ε homodimer protein [1] = molecular target: T1, CD3ε homodimer protein (human, UniProt P07766 23-126, limits assumed); test: SPR (Biacore T200, 25°C); CD3ε homodimer immobilized on CM4, one-arm antibody as analyte
T1 construct: also called human CD3ε homodimer protein; CD3e homodimer
T1 sequence (P07766 23-126 limits assumed): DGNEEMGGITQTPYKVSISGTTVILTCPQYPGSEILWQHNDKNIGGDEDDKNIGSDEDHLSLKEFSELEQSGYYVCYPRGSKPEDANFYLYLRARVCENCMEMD

CD3ε homodimer protein [2] = molecular target: T2, CD3ε homodimer protein (human, UniProt P07766 23-126, limits assumed); test: SPR, CD3e immobilized
T2 construct: Whole entry named for the human CD3 epsilon chain
T2 sequence (P07766 23-126 limits assumed): as above
Experimental: Each one-amino acid altered form constructed, expressed, and purified in the paragraph (6-2) was evaluated using Biacore T200 (GE Healthcare Japan Corp.). An appropriate amount of CD3ε homodimer protein was immobilized onto Sensor chip CM4 (GE Healthcare Japan Corp.) by the amine coupling method. Then, the antibody having an appropriate concentration was injected thereto as an analyte and allowed to interact with the CD3ε homodimer protein on the sensor chip. Then, the sensor chip was regenerated by the injection of 10 mmol/L glycine-HCl (pH 1.5). The assay was conducted at 25° C., and HBS-EP+ (GE Healthcare Japan Corp.) was used as a running buffer. […] Each parameter was calculated using Biacore T200 Evaluation Software (GE Healthcare Japan Corp.).
Specifically, when the amount of the GLS3000-containing antibody bound was defined as X and the amount of the L chain one-amino acid altered form bound was defined as Y, a value of Z (ratio of amounts bound)=Y/X was used.

| Kd (CD3ε homodimer protein [1]) [nM] | KD ratio to GLS3000 (CD3ε homodimer protein [2]) | Binder |
| --- | --- | --- |
| 69 |  | B1 |
| 74 |  | B2 |
| 90 |  | B3 |
| 38 |  | B4 |
|  | 0.96 | B5 |
